Patent publication US10787640B2, “Producing mesodermal cell types and methods of using the same” (The Board of Trustees of the Leland Stanford Junior …, priority 2015, dated 2020)

Key:
Assay type in all cases: cell-based, human
[1] = test system: paraxial mesoderm; test: Paraxial mesoderm induction, marker expression; settings: during induction of paraxial mesoderm
Experimental: All differentiation was conducted in serum-free CDM2 basal medium in monolayer feeder-free conditions. hPSCs were sparsely passaged ˜1:15-1:20 as fine clumps (using Accutase) onto Geltrex (Gibco)-coated cell culture wells and cultured overnight in mTeSR1+1 μM thiazovivin. The following morning, hPSCs were differentiated towards anterior PS (30 ng/mL Activin+4 μM CHIR+20 ng/mL FGF2+100 nM PIK90; for subsequent paraxial differentiation) or mid PS (30 ng/mL Activin+40 ng/mL BMP4+6 μM CHIR+20 ng/mL FGF2+[…] differentiation) for 24 hrs. D1 anterior PS→D2 paraxial mesoderm (1 μM A8301+3 μM CHIR+250 nM LDN193189+20 ng/mL FGF2) for 24 hrs. D1 mid PS→D2 lateral mesoderm (1 μM A8301+30 ng/mL BMP4+1 μM C59) for 24 hrs.
Subsequently, day 1 anterior primitive streak was briefly washed (DMEM/F12) and differentiated towards day 2 paraxial mesoderm for 24 hours (1 μM A-83-01+3 μM CHIR99021+250 nM LDN-193189+20 ng/mL FGF2). Separately, day 1 mid primitive streak was differentiated towards day 2 lateral mesoderm for 24 hours (1 μM A-83-01+30 ng/mL BMP4+1 μM C59; with 2 μM SB-505124 sometimes used instead of A-83-01).

[2] = test system: day 3 hemogenic precursors; test: Hemogenic precursors into day 5 hematopoietic intermediates; settings: withdrawal of the factor from BMP, VEGF, XAV939, TTNPB
Experimental: (§1) SOX17^mCherry/+ H9 hESCs (referred to as SOX17-mCherry hESCs throughout this study) were routinely propagated in mTeSR1 (StemCell Technologies)+1% penicillin/streptomycin. They were passaged ˜1:12-1:25 as fine clumps using Accutase (Gibco) onto plates precoated with a Geltrex substratum (Gibco) in mTeSR1 medium supplemented with thiazovivin ([…]; a ROCK inhibitor). After overnight plating, hESCs were washed (DMEM/F12) and differentiated towards posterior PS using BMP4 (15-40 ng/mL, R&D Systems), CHIR99021 ([…]), FGF2 (20 ng/mL, Invitrogen) and PIK90 (100 nM, Calbiochem) for 24 hours, with the optional inclusion of Activin (30 ng/mL, R&D Systems) to induce mid PS. Day 1 mid or posterior PS was subsequently washed (DMEM/F12) and further differentiated using BMP4 (40 ng/mL), GDC-0941 (0.25-2.5 μM, Cellagen Technology), Forskolin (10 μM, Tocris), SB-505124 ([…]), VEGF (100 ng/mL, R&D Systems), XAV939 (1 μM, Tocris) and ascorbic acid-2-phosphate (200 μg/mL, Sigma) for 24 hours. Day 2 cultures were further directed into the definitive hematopoietic lineage/hemogenic precursors by Activin A (15 ng/mL), GDC-0941 (0.25-2.5 μM), VEGF (100 ng/mL), XAV939 (1 μM) and ascorbic acid-2-phosphate (200 μg/mL) for 24 hours. Day 3 definitive hematopoietic progenitors were subsequently differentiated into early Runx1^lowGfi1^low hemogenic intermediates through day 4-5 treatment with BMP4 (50 ng/mL), TTNPB (500 nM), VEGF (100 ng/mL) and XAV939 (1 μM) for 48 hours, supplemented with SB-505124 (2 μM) on day 5. Day 5 populations were then dissociated into single cells, counted and reaggregated in individual wells of a low-adhesion V-bottom or U-bottom 96-well plate (e.g., Thermo Fisher, catalog no. 249952) with ˜15,000-20,000 cells seeded per well. Aggregates were cultured for 48 additional hours until day 7 in BMP4 (50 ng/mL), TTNPB (500 nM), VEGF (100 ng/mL), XAV939 (1 μM), SB-505124 (2 μM), SCF (25-50 ng/mL, R&D Systems), IL6 (10 ng/mL, R&D Systems) and IL6RA (250-1000 ng/mL, R&D Systems). All differentiation was conducted in serum-free CDM2 fully-defined basal media.

[3] = test system: day 6 sclerotome; test: Sclerotome differentiation towards cartilage
Experimental: Day 6 sclerotome was briefly washed (DMEM/F12) and treated with BMP4 (20 ng/mL) for 72-144 hours, leading to day 9 or day 12 cartilage-like progeny. Media was changed every 24 hours.
hPSC-derived cartilage progeny were stained with safranin-O to assess their production of acidic proteoglycans, which is a key trademark of cartilage phenotypic function. Safranin-O staining was conducted in accord with standard procedures. Namely, hPSC-derived cartilage progeny at day 12 of differentiation (day 6 sclerotome treated with chondrogenic BMP4 for 6 further days) were fixed (with 4% formaldehyde, for 10 minutes at room temperature), washed twice in PBS, briefly treated with 1M acetic acid for 15 seconds, stained with 1% safranin-O solution for 10 minutes, washed with PBS, and wide-field visualization was performed with a dissecting microscope (Leica M205 FA).
FIG. 11: A) To determine the length of time required for sclerotome differentiation, a qPCR timecourse was performed, encompassing undifferentiated hESCs (D0), day 2 hESC-derived paraxial mesoderm (D2 PXM), day 3 hESC-derived early somite progenitors, and hESC-derived day 3 early somite progenitors that were exposed to sclerotome inductive conditions (5 nM 21K+1 μM C59) for 24 or 48 hours. B) Description of EF1α-BCL2-T2A-GFP lentiviral construct (otherwise known as “C306”; top) and FACS plot of a stably-transduced polyclonal H9 hESC line with near-uniform expression of the BCL2-T2A-GFP transgene (green contour) by comparison to uncolored wild-type hESCs (bottom) (see above methods for details of derivation of the H9 BCL2-T2A-GFP hESC line). C) Higher-magnification picture of BCL2-T2A-GFP hESC-derived sclerotome ectopic bone grafts (originally described above in FIG. 4, panel E), showing that despite the near-ubiquitous expression of GFP throughout the ectopic bone graft (indicating its human provenance), the blood vessels are clearly GFP-negative and therefore presumably derived from the mouse host; scale bar=1 mm. […]

[4] = test system: SOX17-mCherry hESCs; test: Hematopoietic mesoderm and SOX17+CD34+ hemogenic precursor specification
Experimental: as §1

Molecule: Cc1cnc(-c2cnc(NCCNc3ccc(C#N)cn3)nc2-c2ccc(Cl)cc2Cl)[nH]1 [CHIR99021, 6-[[2-[[4-(2,4-Dichlorophenyl)-5-(5-methyl-1H-imidazol-2-yl)-2-pyrimidinyl]amino]ethyl]amino]-3-pyridinecarbonitrile]
- marker expression ([1]; at 4 μM): undesired decrease in marker expression
- critical concentration [1]: less than 4 μM

B1: BMP4: BMP family ligand, BMP agonist (protein, UniProt P12644 293-408, looked up)
Bone morphogenetic protein 4: SPKHHSQRARKKNKNCRRHSLYVDFSDVGWNDWIVAPPGYQAFYCHGDCPFPLADHLNSTNHAIVQTLVNSVNSSIPKACCVPTELSAISMLYLDEYDKVVLKNYQEMVVEGCGCR
- RUNX1 expression by day 5 [2]: crippled RUNX1 expression
- EPIPHYCAN and AGGRECAN expression (timecourse qPCR) ([3]; BMP4 20 ng/mL): only upregulated after prolonged BMP treatment
- SOX9 expression (timecourse qPCR) ([3]; BMP4 20 ng/mL): rapidly downregulated
- cartilage fate (COL2A1, AGGRECAN, EPIPHYCAN, COMP) ([3]; BMP4 for 3 further days, day 9): differentiated towards a cartilage fate

B2: Activin: TGFβ agonist (protein, UniProt P08476 311-426, looked up)
Inhibin beta A chain: GLECDGKVNICCKKQFFVSFKDIGWNDWIIAPSGYHANYCEGECPSHIAGTSGSSLSFHSTVINHYRMRGHSPFANLKSCCVPTKLRPMSMLYYDDGQNIIKKDIQNMIVEECGCS
modifications: Inhibin beta A chain
notes: TGFβ agonist
- downstream ability to acquire hematopoietic fate ([4]; Activin 30 ng/mL during PS induction): significantly enhanced the downstream ability of cells to acquire hematopoietic fate
- SOX17+ cells formed by day 3 ([4]; treatment on day 2-3, 24 hours): doubled the generation of SOX17^+ cells
